The record followed here is patent US20160193316A1 (priority 1994, published 2016).

One experiment deals with T1, DRB1*0301 (DR3) (Homo sapiens, UniProt P01903+P01911, A100K/A102G/A103R/A169T/F55Y/I96L/K41T/L162R/M171V/P40S/Q125H/Q178H/Q39Y/R42S/S66N/T106N/T262R/W38E/Y61H).
T1 construct: endogenous in cells; host or cells: MAT
Nature of the experiment: HLA class II peptide binding assay (pH 4.5). The conditions noted are these: unit not given.

Another experiment concerns the target T2, HLA-A*0301 (Homo sapiens, UniProt P04439).
T2 construct: endogenous in cells; host or cells: GM3107
In words: HLA class I peptide binding assay. The conditions noted are these: for A*301 (binding data): Malaria A03 supermotif peptides; for A*0301 (binding information): Table XVI, Malaria A3 motif peptides.

In the next experiment the target is T3, DRB1*0101 (DR1) (Homo sapiens, UniProt P01903+P01911, A100R/D57E/F55L/F60I/F76Y/I96L/L162R/M171V/P40L/Q125E/R42F/V115G/Y59C).
T3 construct: endogenous in cells; host or cells: LG2
Nature of the experiment: HLA class II peptide binding assay. The conditions noted are these: Table XIXb, Malaria Super Motif Peptides With Binding Data; DR1.

For the next experiment, the target named is T4, DRB1*0401 (DR4w4) (Homo sapiens, UniProt P01903+P01911, A100K/A169T/F76Y/I96L/K127E/L162R/M171V/N62H/P40V/Q125Y/R42H/S133A/S149N/S66Y/V115G/V209L/W38E).
T4 construct: endogenous in cells; host or cells: Preiss
In words: HLA class II peptide binding assay. The conditions noted are these: for DR4w4 binding data: Table XIXb.

The target in a further experiment is T5, DRB1*0701 (DR7) (Homo sapiens, UniProt P01903+P01911, A100R/A102G/A103Q/D57E/D86V/E43K/F76Y/K127E/L162R/M171V/P40G/Q125H/Q99D/R33Q/R42Y/R54Q/S133A/S66F/T210M/V115G/Y107V/Y59L/Y89S).
T5 construct: endogenous in cells; host or cells: Pitout
In words: biochemical. The format is binding.

The next experiment concerns the target T6, DRB1*0802 (DR8w2) (Homo sapiens, UniProt P01903+P01911, A100R/A103L/A169T/F76Y/H45Y/I96F/K41T/L162R/M171V/P40S/Q125H/Q178H/Q39Y/Q99D/R218S/R42G/S66Y/V115G/W38E).
T6 construct: endogenous in cells; host or cells: OLL
In words: biochemical. Format: binding.

In the next experiment the target is T7, DRB1*1201 (DR5w12) (Homo sapiens, UniProt P01903+P01911, A100R/A169T/D57E/D86V/F55L/H45Y/K41T/L162R/M171V/P40S/Q125H/Q178H/Q39Y/Q99D/R42G/S66L/T262R/V114A/V67L/W38E/Y59H/Y61H/Y89S).
T7 construct: endogenous in cells; host or cells: Herluf
In words: HLA class II peptide binding assay. The conditions noted are these: Table XIXb; DR5w12.

[1] abbreviates: DR3a motif peptides, exemplary 15-mer containing the core sequence.
The mark [2] stands for this setting: HLA-A*0301 binding value, unit not given.
The mark [3] stands for this setting: binding value to HLA-A*0301, unit not given.
[4] abbreviates: binding value for HLA-A*0301, unit not given.

T4 sequence (P01903 26-254 partner, other chains not shown): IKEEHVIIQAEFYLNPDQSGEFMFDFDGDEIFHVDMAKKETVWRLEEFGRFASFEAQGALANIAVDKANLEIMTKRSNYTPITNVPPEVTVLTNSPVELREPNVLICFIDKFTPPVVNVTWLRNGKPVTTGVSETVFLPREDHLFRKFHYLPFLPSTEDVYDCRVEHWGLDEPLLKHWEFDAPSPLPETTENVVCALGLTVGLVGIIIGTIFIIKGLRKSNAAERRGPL
T3 sequence (P01903 26-254 partner, other chains not shown): as above

LFVEALFQE came in with a DR3 binding information with DRB1*0301 (DR3) (setting [1]) of 0.0051.

As for LGEEDKDLD, the DR3 binding information in the experiment with DRB1*0301 (DR3) (Malaria DR3b motif peptides) is reported as -0.0130.

Consider LHSDASKNK, for which the DR3 binding information with DRB1*0301 (DR3) (setting [1]) is on record as -0.0033.

Consider LLIFHINKGK, for which the “A*301 (binding data)” value in the experiment with HLA-A*0301 (binding value, no unit given) stood at 0.0260.

For the sequence LLIFNINGK, the “A*0301 (binding information)” value at HLA-A*0301 (setting [2]) is listed as 0.0260.

For the sequence LPQDNRGNS, the DR3 binding information with DRB1*0301 (DR3) (Malaria DR3b motif peptides) is -0.0033.

Take LSEEKIKKG: the DR3 binding information with DRB1*0301 (DR3) (setting [1]) is recorded as -0.0033.

Regarding LSFINSYEKTK, in the experiment with HLA-A*0301 (setting [2]), the “A*0301 (binding information)” value was 0.0004.

In the case of LSTEWSPCS, the DR3 binding information in the experiment with DRB1*0301 (DR3) (setting [1]) is reported as -0.0033.

On to LVGCHPSDOK (LVGCHPSDGK), for which the “A*0301 (binding information)” value with HLA-A*0301 (setting [3]) was determined as 0.0004.

In the experiment with DRB1*0101 (DR1), LVTVFLIFF displayed a DR1 binding data of 0.0001. This sequence also gave a DR4w4 binding data in the experiment with DRB1*0401 (DR4w4) of 0.0030. Besides, the DR7 binding data with DRB1*0701 (DR7) is 0.0010.

In the experiment with DRB1*0301 (DR3) (setting [1]), LYNELEMNY returned a DR3 binding information of 0.0270.

In the case of MTTNVEGR, the “A*0301 (binding information)” value with HLA-A*0301 (setting [2]) was found to be 0.0002.

Regarding MTTNVEGRR, the “A*0301 (binding information)” value with HLA-A*0301 (setting [2]) is given as 0.0002.

In the case of NIRVLNELNY, in the experiment with HLA-A*0301 (setting [4]), the “A*0301 (binding information)” value was determined as 0.0005.

Take NSEKDETIK: the “A*301 (binding data)” value with HLA-A*0301 (binding value, no unit given) is 0.0002.

On to NSEKDFIKK, for which, in the experiment with HLA-A*0301 (setting [2]), the “A*0301 (binding information)” value came out at 0.0002.

In the case of NSRNRKNEEK, in the experiment with HLA-A*0301 (setting [2]), the “A*0301 (binding information)” value was determined as 0.0004.

Consider NTEKGFHPFK, for which, in the experiment with HLA-A*0301 (setting [4]), the “A*0301 (binding information)” value is recorded as 0.0047.

In the case of QSKLEQERR, the “A*301 (binding data)” value in the experiment with HLA-A*0301 (binding value, no unit given) is 0.0002.

As for QSQDNNONRH (QSQDNNGNRH), the “A*0301 (binding information)” value with HLA-A*0301 (setting [3]) is given as 0.0004.

As to QVRICHLNDR, in the experiment with HLA-A*0301 (setting [3]), the “A*0301 (binding information)” value is given as 0.0005.

RINEEKNEKK: the “A*0301 (binding information)” value with HLA-A*0301 (setting [2]) was determined as 0.0024.

For the sequence SDASICNKEK, the “A*0301 (binding information)” value with HLA-A*0301 (setting [3]) came to 0.0005.

For the sequence VDESEDITK, in the experiment with HLA-A*0301 (setting [2]), the “A*0301 (binding information)” value was 0.0002.

With VEVNKRKSK, the DR3 binding information with DRB1*0301 (DR3) (Malaria DR3b motif peptides) turned out to be 0.0880.

As to VGLVLYNIEK, the “A*0301 (binding information)” value with HLA-A*0301 (setting [4]) was 0.0005.

In the case of VLDNERKQS, the DR3 binding information with DRB1*0301 (DR3) (Malaria DR3b motif peptides) is recorded as -0.0130.

For VLNELNYDN, in the experiment with DRB1*0301 (DR3) (setting [1]), the DR3 binding information is on record as -0.0033.

Regarding VLYNIEKGRH, in the experiment with HLA-A*0301 (setting [4]), the “A*0301 (binding information)” value is listed as 0.0029.

As to VLYNTEKGRS, the “A*301 (binding data)” value with HLA-A*0301 (binding value, no unit given) is reported as 0.0110.

For the sequence VNKEKEKFI, the DR3 binding information with DRB1*0301 (DR3) (setting [1]) is on record as -0.0033.

VPCGKGTISR: in the experiment with HLA-A*0301 (Table IX), the “A*301 (binding data)” value was determined as 0.0004.

For the sequence VPSDVPKNP, the DR4w4 binding information with DRB1*0401 (DR4w4) (DR3a motif peptides, unit not given, exemplary 15-mer containing the core sequence) is recorded as -0.0130.

For the sequence VQYDNFQDE, the DR3 binding information with DRB1*0301 (DR3) (setting [1]) is given as -0.0033.

Consider VTPEQPQGD, for which the DR3 binding information with DRB1*0301 (DR3) (setting [1]) was -0.0033.

In turn, YAGEPAPFD displayed a DR3 binding information with DRB1*0301 (DR3) (setting [1]) of -0.0130.

Take YKFVVPGAA: in the experiment with DRB1*0802 (DR8w2), the DR8w2 binding data worked out at 2.5000. This sequence also showed a DR4w4 binding data with DRB1*0401 (DR4w4) of 1.0000. This sequence came in with a DR5w12 binding data with DRB1*1201 (DR5w12) of 0.3500.

In the experiment with DRB1*0301 (DR3) (setting [1]), YKNDKQVNK displayed a DR3 binding information of -0.0033.

As for YREEVCNDE, the DR3 binding information with DRB1*0301 (DR3) (setting [1]) was -0.0033.
